Drawing on paper PMC10484678, this text covers Kd for one molecule.

In this series the target is PCBP2 KH1/2 (human, UniProt Q15366 1-168). The series can be described thus: ITC.
PCBP2 KH1/2, sequence (Q15366 1-168): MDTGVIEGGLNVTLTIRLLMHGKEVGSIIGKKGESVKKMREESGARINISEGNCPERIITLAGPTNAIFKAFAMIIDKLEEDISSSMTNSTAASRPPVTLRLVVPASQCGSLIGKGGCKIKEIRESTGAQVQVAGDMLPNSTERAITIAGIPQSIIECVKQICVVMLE

The molecule GCUCUGGGGUUGUACCCACCCCAGAGC (structured_RNA) [PV stem-loop B] returned a Kd of 22.9 ± 6.3 µM.
